Drawing on article PMC7511342, “Polyol and sugar osmolytes can shorten protein hydrogen bonds to modulate function” (Communications Biology, 2020), this text covers Kd for one molecule.

By Kd is commonly meant the constant that tells how readily two partners part at equilibrium. A high value points to lower affinity.

This assay addresses T1, PDZ3 (the third PDZ domain of the neuronal signaling protein PSD-95/SAP90, residue 303-395) (UniProt P31016 303-395).
T1 construct: third PDZ domain of PSD-95/SAP90, residues 303-395; 15N-labelled for the NMR titration; also called PDZ3^303-395
As to the kind of experiment: NMR titration; 2D 1H-15N HSQC of 15N-labelled PDZ3 303-395 (20 uM) titrated with CRIPT peptide 0-100 uM; 308 K; 20 mM sodium phosphate, 50 mM NaCl, pH 7.0; no osmolyte; single-site fit of 12 backbone amides, averaged. Conditions: both partners purified.

T1 sequence (P31016 303-395): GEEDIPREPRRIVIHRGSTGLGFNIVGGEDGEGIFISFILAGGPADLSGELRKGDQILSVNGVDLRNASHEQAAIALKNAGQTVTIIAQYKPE

B1: C-terminal peptide from CRIPT (Ac-TKNYKQTSV-COOH) (peptide)
peptide: Ac-TKNYKQTSV-OH
notes: C-terminal nine residues of CRIPT; also called CRIPT peptide; source: synthetic peptide (APeptide Co. Ltd, Shanghai, China)
For the molecule B1, the Kd was about 13 µM.
